The target in data set [1] is T1, RimR2 (Streptomyces rimosus M527, UniProt A0ABY3YSD1 1-918).
T1 sequence: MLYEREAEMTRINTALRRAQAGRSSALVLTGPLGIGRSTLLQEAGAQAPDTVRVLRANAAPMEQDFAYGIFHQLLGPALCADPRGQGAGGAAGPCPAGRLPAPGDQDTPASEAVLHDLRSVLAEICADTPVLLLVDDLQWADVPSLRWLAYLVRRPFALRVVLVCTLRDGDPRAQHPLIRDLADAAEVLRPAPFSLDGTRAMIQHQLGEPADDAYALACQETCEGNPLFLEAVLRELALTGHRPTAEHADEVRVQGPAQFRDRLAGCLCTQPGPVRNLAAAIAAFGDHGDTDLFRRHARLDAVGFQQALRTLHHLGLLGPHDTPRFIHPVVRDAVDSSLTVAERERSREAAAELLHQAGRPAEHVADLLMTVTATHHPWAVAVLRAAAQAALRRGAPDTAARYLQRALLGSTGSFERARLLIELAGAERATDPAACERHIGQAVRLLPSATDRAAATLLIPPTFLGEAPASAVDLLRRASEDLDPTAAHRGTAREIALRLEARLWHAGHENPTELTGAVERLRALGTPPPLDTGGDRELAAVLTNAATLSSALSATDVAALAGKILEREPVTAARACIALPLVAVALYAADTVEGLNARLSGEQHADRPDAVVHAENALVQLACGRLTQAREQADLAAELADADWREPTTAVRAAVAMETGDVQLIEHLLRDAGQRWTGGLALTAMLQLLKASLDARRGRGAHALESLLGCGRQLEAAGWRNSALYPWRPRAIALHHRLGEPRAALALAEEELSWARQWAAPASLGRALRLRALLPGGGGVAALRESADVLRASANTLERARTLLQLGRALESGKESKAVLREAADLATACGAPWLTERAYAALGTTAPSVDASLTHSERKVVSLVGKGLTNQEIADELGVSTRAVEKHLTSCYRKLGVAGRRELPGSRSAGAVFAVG
The data set is described as follows: EMSA; LightShift Chemiluminescent EMSA Kit (Thermo); 0.04 pmol/ul biotin probe, 10 ug RimR2; buffer, salt, pH and temperature not stated. Conditions: protein: recombinant; tags: His6 (pET32a, EcoRV/BamHI); blunt. In general terms: Mobility shift assays separate free from complexed probe on a gel.

Data set [2] addresses T1, RimR2. The data set can be described thus: EMSA; competed by 100-fold unlabeled probe; LightShift Chemiluminescent EMSA Kit (Thermo); 0.04 pmol/ul biotin probe, 10 ug RimR2; buffer, salt, pH and temperature not stated. Conditions: protein: recombinant; tags: His6 (pET32a, EcoRV/BamHI); blunt.

B1: rimR2 promoter probe (dsDNA)
DNA 1: TACCTACAAGAAATTGCGTATCACCTCACGCAAGGAACTCCGCGCGCGGA
DNA 2: TCCGCGCGCGGAGTTCCTTGCGTGAGGTGATACGCAATTTCTTGTAGGTA
On to B1, for which the binding result in data set [1] is given as “binds”.

B2: rimA promoter probe (dsDNA)
DNA 1: ATCACCGTGCACGAGGGCTGACGCCCGCCCGGGCAGGAGCTCGTGTCCGA
DNA 2: TCGGACACGAGCTCCTGCCCGGGCGGGCGTCAGCCCTCGTGCACGGTGAT
Regarding B2, the binding result in data set [2] is “binds”.

B3: rimC promoter probe (dsDNA)
DNA 1: CCCCATCCTGATCACAAAAGACTAAGGGAAATGTTAAAGGTACGGTGTGC
DNA 2: GCACACCGTACCTTTAACATTTCCCTTAGTCTTTTGTGATCAGGATGGGG
For B3, the binding result in data set [2] is “binds”.

For the origin of these results see publication PMC9942304, “Identification of RimR2 as a positive pathway-specific regulator of rimocidin biosynthesis in Streptomyces rimosus M527”.
